Source: patent US20140308281A1 (OSE IMMUNOTHERAPEUTICS, published 2014)
Substitutions are numbered along the chain they refer to.

Molecular target: T1, CD127 (as used in the BIAcore measurement of Table 1) (human, UniProt P16871 21-239, limits assumed)
T1 construct: the Mabs are called anti-human CD127; also called alpha chain of the IL-7 receptor; IL-7Ralpha
T1 sequence (looked up): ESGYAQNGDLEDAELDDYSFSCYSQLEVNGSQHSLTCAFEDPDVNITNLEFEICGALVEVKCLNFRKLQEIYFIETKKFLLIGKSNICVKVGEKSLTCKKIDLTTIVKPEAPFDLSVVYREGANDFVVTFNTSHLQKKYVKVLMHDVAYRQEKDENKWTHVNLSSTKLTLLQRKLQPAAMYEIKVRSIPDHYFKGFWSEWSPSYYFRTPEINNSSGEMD
Assay: SPR (BIAcore)

B1: MD707-1 (antibody, V domains shown)
VH: AVHLVESGGGLVQPKESLKISCAASGFTFSNAAMFWVRQAPGKGLEWVARIRTKANNYATYYADSVKGRFTISRDDSKSMVYLQMDNVKTDDTAMYYCIVVVLTTTRDYFDYWGQGVMVTVSS
VL: DIVLTQAPLSVSVTPGESASISCRSSQSLLTVKGITSLYWFLQKPGKSPQLLMYRMSNLASGVPDRFRGSGSETDFTLKISKVETEDVGVYYCAQFLEYPHTFGAGTKLELKR
notes: also called 7MD07-1; rat anti-human CD127 Mab MD707-1
- Kd: 15.9 nM

B2: MD707-3 (antibody, V domains shown)
VH: B1 VH with F35Y, D64E
VL: B1 VL with M53I
notes: also called 7MD07-3; rat anti-human CD127 Mab MD707-3
- Kd: 6.52 nM

B3: MD707-13 (antibody, V domains shown)
VH: QLKESGPGLVQPSQTLSLTCTVSGLSLPNNNIAWIRQSPGKGLEWMGVIWSNGDTDYNSAIRSRLSISRDSSKSQVFLRMNSLQSEDTAMYFCAREGMTTLDYWGQGVVVTVSS
VL: EIVLTQSPTTMAASPGEKVTITCRASSSVSYMHWFQQKSGSSPKPWIYDSSDLASGVPDRFSGSGSGTSYSLTISSMEAEDAATYYCLQRSSYPRTFGGGTKLELKR
notes: also called 7MD07-13; rat anti-human CD127 Mab MD707-13
- Kd: 1.31 nM
